Experimental data from US7083786.

T1: human complement factor C4, P0C0L4
T1 chain: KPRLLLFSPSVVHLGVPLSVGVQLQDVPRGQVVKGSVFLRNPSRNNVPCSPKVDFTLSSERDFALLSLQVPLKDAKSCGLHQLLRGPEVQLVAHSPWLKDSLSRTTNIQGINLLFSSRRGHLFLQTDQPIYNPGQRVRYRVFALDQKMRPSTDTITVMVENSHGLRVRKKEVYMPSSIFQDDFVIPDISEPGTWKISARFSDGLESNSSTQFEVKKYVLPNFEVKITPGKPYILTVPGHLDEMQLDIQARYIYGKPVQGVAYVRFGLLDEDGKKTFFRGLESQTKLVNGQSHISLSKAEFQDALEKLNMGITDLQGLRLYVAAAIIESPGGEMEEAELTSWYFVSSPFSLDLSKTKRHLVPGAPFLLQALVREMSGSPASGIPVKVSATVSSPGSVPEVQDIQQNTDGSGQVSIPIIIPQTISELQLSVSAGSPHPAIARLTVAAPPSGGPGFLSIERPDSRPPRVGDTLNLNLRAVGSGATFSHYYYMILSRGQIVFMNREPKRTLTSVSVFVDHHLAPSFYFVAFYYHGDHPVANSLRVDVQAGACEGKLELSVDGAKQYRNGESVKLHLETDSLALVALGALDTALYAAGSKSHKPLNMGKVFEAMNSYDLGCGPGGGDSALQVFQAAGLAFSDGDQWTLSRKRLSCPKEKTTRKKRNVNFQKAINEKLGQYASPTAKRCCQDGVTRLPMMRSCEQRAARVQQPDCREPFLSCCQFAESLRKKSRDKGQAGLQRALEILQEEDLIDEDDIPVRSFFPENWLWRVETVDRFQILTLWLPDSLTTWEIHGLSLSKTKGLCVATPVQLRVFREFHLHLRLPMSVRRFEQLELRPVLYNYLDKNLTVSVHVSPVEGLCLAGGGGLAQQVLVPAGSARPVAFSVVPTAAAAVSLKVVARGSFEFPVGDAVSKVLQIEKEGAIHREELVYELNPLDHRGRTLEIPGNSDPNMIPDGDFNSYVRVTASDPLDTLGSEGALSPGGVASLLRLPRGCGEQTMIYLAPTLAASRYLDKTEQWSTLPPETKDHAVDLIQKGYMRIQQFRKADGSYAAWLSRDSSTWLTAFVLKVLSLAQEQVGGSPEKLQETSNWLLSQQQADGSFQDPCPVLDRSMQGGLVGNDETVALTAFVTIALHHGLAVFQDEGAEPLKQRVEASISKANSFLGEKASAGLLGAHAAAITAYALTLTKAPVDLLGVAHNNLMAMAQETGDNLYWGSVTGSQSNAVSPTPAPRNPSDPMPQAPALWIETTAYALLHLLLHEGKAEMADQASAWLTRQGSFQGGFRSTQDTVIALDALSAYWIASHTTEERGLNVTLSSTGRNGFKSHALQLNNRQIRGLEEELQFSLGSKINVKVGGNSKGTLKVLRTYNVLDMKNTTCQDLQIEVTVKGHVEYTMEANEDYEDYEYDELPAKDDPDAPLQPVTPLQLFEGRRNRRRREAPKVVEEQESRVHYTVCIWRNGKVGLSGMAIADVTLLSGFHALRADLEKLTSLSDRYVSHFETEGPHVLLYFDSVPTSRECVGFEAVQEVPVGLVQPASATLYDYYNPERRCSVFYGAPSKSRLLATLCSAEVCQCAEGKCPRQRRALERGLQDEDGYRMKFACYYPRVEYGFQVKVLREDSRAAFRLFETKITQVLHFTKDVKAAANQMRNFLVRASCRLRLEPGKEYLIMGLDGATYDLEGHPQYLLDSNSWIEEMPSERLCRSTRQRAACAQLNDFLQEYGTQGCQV

B1: MASP-1 (MBP-associated serine protease) from human plasma (protein)
chain: HTVELNNMFGQIQSPGYPDSYPSDSEVTWNITVPDGFRIKLYFMHFNLESSYLCEYDYVKVETEDQVLATFCGRETTDTEQTPGQEVVLSPGSFMSITFRSDFSNEERFTGFDAHYMAVDVDECKEREDEELSCDHYCHNYIGGYYCSCRFGYILHTDNRTCRVECSDNLFTQRTGVITSPDFPNPYPKSSECLYTIELEEGFMVNLQFEDIFDIEDHPEVPCPYDYIKIKVGPKVLGPFCGEKAPEPISTQSHSVLILFHSDNSGENRGWRLSYRAAGNEPELQPPVHGKIEPSQAKYFFKDQVLVSCDTGYKVLKDNVEMDTFQIECLKDGTWSNKIPTCKIVDCRAPGELEHGLITFSTRNNLTTYKSEIKYSCQEPYYKMLNNNTGIYTCSAQGVWMNKVLGRSLPTCLPVCGLPKFSRKLMARIFNGRPAQKGTTPWIAMLSHLNGQPFCGGSLLGSSWIVTAAHCLHQSLDPKDPTLRDSDLLSPSDFKIILGKHWRLRSDENEQHLGVKHTTLHPKYDPNTFENDVALVELLESPVLNAFVMPICLPEGPQQEGAMVIVSGWGKQFLQRFPETLMEIEIPIVDHSTCQKAYAPLKKKVTRDMICAGEKEGGKDACSGDSGGPMVTLNRERGQWYLVGTVSWGDDCGKKDRYGVYSYIHHNKDWIQRVTGVRN
B2: mannan-binding lectin associated serine protease-2 (MASP-2), 76 kDa protein from human plasma (protein)
chain: TPLGPKWPEPVFGRLASPGFPGEYANDQERRWTLTAPPGYRLRLYFTHFDLELSHLCEYDFVKLSSGAKVLATLCGQESTDTERAPGKDTFYSLGSSLDITFRSDYSNEKPFTGFEAFYAAEDIDECQVAPGEAPTCDHHCHNHLGGFYCSCRAGYVLHRNKRTCSALCSGQVFTQRSGELSSPEYPRPYPKLSSCTYSISLEEGFSVILDFVESFDVETHPETLCPYDFLKIQTDREEHGPFCGKTLPHRIETKSNTVTITFVTDESGDHTGWKIHYTSTAQPCPYPMAPPNGHVSPVQAKYILKDSFSIFCETGYELLQGHLPLKSFTAVCQKDGSWDRPMPACSIVDCGPPDDLPSGRVEYITGPGVTTYKAVIQYSCEETFYTMKVNDGKYVCEADGFWTSSKGEKSLPVCEPVCGLSARTTGGRIYGGQKAKPGDFPWQVLILGGTTAAGALLYDNWVLTAAHAVYEQKHDASALDIRMGTLKRLSPHYTQAWSEAVFIHEGYTHDAGFDNDIALIKLNNKVVINSNITPICLPRKEAESFMRTDDIGTASGWGLTQRGFLARNLMYVDIPIVDHQKCTAAYEKPPYPRGSVTANMLCAGLESGGKDSCRGDSGGALVFLDSETERWFVGGIVSWGSMNCGEAGQYGVYTKVINYIPWIENIISDF
B3: C1r from human serum C1 (protein)
chain: SIPIPQKLFGEVTSPLFPKPYPNNFETTTVITVPTGYRVKLVFQQFDLEPSEGCFYDYVKISADKKSLGRFCGQLGSPLGNPPGKKEFMSQGNKMLLTFHTDFSNEENGTIMFYKGFLAYYQAVDLDECASRSKSGEEDPQPQCQHLCHNYVGGYFCSCRPGYELQEDRHSCQAECSSELYTEASGYISSLEYPRSYPPDLRCNYSIRVERGLTLHLKFLEPFDIDDHQQVHCPYDQLQIYANGKNIGEFCGKQRPPDLDTSSNAVDLLFFTDESGDSRGWKLRYTTEIIKCPQPKTLDEFTIIQNLQPQYQFRDYFIATCKQGYQLIEGNQVLHSFTAVCQDDGTWHRAMPRCKIKDCGQPRNLPNGDFRYTTTMGVNTYKARIQYYCHEPYYKMQTRAGSRESEQGVYTCTAQGIWKNEQKGEKIPRCLPVCGKPVNPVEQRQRIIGGQKAKMGNFPWQVFTNIHGRGGGALLGDRWILTAAHTLYPKEHEAQSNASLDVFLGHTNVEELMKLGNHPIRRVSVHPDYRQDESYNFEGDIALLELENSVTLGPNLLPICLPDNDTFYDLGLMGYVSGFGVMEEKIAHDLRFVRLPVANPQACENWLRGKNRMDVFSQNMFCAGHPSLKQDACQGDSGGVFAVRDPNTDRWVATGIVSWGIGCSRGYGFYTKVLNYVDWIKKEMEEED
B4: C1s from human serum C1 (protein)
chain: EPTMYGEILSPNYPQAYPSEVEKSWDIEVPEGYGIHLYFTHLDIELSENCAYDSVQIISGDTEEGRLCGQRSSNNPHSPIVEEFQVPYNKLQVIFKSDFSNEERFTGFAAYYVATDINECTDFVDVPCSHFCNNFIGGYFCSCPPEYFLHDDMKNCGVNCSGDVFTALIGEIASPNYPKPYPENSRCEYQIRLEKGFQVVVTLRREDFDVEAADSAGNCLDSLVFVAGDRQFGPYCGHGFPGPLNIETKSNALDIIFQTDLTGQKKGWKLRYHGDPMPCPKEDTPNSVWEPAKAKYVFRDVVQITCLDGFEVVEGRVGATSFYSTCQSNGKWSNSKLKCQPVDCGIPESIENGKVEDPESTLFGSVIRYTCEEPYYYMENGGGGEYHCAGNGSWVNEVLGPELPKCVPVCGVPREPFEEKQRIIGGSDADIKNFPWQVFFDNPWAGGALINEYWVLTAAHVVEGNREPTMYVGSTSVQTSRLAKSKMLTPEHVFIHPGWKLLEVPEGRTNFDNDIALVRLKDPVKMGPTVSPICLPGTSSDYNLMDGDLGLISGWGRTEKRDRAVRLKAARLPVAPLRKCKEVKVEKPTADAEAYVFTPNMICAGGEKGMDSCKGDSGGAFAVQDPNDKTKFYAAGLVSWGPQCGTYGLYTRVKNYVDWIMKTMQENSTPRED

Molecular target: T1, human complement factor C4, P0C0L4
In the case of B1, the “C4 deposition on a Western blot incubated with human serum (C4 activation)” value (“C4 deposition” below) is reported as “no C4 deposition was observed at positions corresponding to MASP-1”. B2 was tested, and the “C4 deposition” value was “C4 was deposited at a position corresponding to the MASP-2 band”. With B3 the “C4 deposition” value was “C4 deposition, which could be inhibited by enzyme inhibitors, was observed at a position corresponding to C1r and C1s, which are not separated by the technique employed”. With B4 the “C4 deposition” value was “C4 deposition, which could be inhibited by enzyme inhibitors, was observed at a position corresponding to C1r and C1s, which are not separated by the technique employed”.
